The supplement of paper PMC10065799, “High-throughput profiling of sequence recognition by tyrosine kinases and SH2 domains using bacterial peptide display” (eLife, 2023)

Assays:
[1] = biological target: c-Src SH2; test: SH2 binding enrichment of the phosphorylated peptide, bacterial display (enrichment ratio); higher = better substrate or ligand; peptides without Tyr show the background
[2] = biological target: SHP2-C SH2; test: as above
[3] = biological target: Grb2 SH2 (UniProt P62993); test: as above
[4] = biological target: Hck (UniProt P08631); test: phosphorylation enrichment, bacterial display (enrichment ratio); higher = better substrate or ligand; peptides without Tyr show the background
[5] = biological target: EPHB1 (UniProt P54762); test: as above
[6] = test system: c-Src; test: as above
[7] = biological target: Fes (UniProt P07332); test: as above
[8] = test system: Fer (mouse); test: as above
[9] = biological target: FGFR3 (UniProt P22607); test: as above
[10] = biological target: MERTK (UniProt Q12866); test: as above
[11] = test system: AncSZ; test: as above
[12] = biological target: Jak2 (UniProt O60674); test: as above
[13] = test system: c-Abl (mouse); test: as above
[14] = biological target: Fyn (UniProt P06241); test: as above
[15] = biological target: EPHB2 (UniProt P29323); test: as above
[16] = biological target: FGFR1 (UniProt P11362); test: as above
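For SH2 binding enrichment of the phosphorylated peptide, bacterial display in this document: peptide library displayed on the E. coli surface as eCPX fusions, selected cells deep-sequenced, score is each peptide's frequency after selection divided by its frequency in the input.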
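For phosphorylation enrichment, bacterial display in this document: 11-residue human phosphosite peptides and single-mutation variants displayed on the E. coli surface, counted by deep sequencing, each peptide's frequency after selection divided by its frequency in the unselected input library; frequency after pTyr selection over input frequency; kinase dosed for 20-30% of maximal phosphorylation in three min.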

Sequence of Fyn (P06241 whole entry, looked up): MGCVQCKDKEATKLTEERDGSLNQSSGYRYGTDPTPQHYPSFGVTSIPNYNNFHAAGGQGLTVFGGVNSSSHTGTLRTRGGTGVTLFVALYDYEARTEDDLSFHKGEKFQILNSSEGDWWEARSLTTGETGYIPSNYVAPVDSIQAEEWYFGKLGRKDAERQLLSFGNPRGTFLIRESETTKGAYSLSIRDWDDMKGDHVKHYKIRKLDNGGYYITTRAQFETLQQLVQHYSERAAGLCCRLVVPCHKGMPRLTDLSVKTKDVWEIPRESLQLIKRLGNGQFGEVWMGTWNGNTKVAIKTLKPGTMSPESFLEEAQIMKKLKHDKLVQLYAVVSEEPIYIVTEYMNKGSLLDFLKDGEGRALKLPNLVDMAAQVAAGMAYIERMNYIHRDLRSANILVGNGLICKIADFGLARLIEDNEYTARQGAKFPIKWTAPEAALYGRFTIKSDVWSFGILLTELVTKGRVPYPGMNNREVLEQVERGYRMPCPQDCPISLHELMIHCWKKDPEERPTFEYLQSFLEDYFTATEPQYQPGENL
Sequence of FGFR3 (P22607 whole entry, looked up): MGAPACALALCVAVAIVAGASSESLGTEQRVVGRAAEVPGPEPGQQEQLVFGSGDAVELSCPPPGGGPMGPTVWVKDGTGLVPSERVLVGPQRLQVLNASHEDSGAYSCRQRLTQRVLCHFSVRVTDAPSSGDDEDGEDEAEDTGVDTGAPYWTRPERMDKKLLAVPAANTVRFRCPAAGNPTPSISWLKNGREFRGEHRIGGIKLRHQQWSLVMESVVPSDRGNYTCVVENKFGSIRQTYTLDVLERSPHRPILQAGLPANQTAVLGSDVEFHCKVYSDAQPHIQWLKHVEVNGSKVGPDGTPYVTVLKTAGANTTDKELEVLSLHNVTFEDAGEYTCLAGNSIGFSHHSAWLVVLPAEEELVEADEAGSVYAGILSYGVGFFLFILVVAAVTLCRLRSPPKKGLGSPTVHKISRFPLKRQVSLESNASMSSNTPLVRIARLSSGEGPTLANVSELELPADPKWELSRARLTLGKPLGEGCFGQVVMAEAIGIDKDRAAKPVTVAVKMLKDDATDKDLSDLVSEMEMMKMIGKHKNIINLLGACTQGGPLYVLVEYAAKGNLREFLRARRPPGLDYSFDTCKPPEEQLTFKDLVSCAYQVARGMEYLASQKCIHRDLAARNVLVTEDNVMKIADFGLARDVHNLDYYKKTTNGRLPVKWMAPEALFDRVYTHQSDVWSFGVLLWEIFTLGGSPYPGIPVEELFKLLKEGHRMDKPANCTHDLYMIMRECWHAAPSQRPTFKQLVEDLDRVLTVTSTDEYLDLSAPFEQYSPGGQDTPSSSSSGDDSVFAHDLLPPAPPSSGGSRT
Sequence of MERTK (Q12866 whole entry, looked up): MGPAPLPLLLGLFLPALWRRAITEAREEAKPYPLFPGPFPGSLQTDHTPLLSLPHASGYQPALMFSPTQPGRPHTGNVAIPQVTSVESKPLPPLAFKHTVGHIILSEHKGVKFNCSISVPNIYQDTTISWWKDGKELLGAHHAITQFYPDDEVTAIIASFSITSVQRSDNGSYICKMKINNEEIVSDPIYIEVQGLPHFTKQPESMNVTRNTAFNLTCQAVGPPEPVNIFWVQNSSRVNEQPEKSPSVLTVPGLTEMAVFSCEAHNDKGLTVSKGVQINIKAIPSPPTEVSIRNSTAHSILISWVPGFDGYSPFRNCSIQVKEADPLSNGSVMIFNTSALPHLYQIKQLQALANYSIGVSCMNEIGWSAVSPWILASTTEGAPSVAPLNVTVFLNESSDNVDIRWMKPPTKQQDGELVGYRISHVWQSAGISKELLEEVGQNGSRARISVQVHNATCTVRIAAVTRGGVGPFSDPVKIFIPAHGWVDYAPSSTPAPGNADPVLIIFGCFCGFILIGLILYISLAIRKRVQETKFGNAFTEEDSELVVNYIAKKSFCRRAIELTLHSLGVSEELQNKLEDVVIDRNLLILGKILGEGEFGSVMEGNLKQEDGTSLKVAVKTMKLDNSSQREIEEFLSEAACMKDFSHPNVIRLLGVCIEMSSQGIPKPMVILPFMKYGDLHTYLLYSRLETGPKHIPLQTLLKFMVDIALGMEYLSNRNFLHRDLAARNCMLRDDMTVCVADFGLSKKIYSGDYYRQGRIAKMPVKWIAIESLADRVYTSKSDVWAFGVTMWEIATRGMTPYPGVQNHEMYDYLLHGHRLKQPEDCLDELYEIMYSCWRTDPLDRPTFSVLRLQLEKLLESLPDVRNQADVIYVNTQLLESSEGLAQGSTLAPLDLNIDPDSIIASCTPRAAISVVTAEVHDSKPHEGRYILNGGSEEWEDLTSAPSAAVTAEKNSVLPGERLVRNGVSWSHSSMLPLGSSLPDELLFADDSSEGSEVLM
Sequence of FGFR1 (P11362 whole entry, looked up, the tested form may be a part): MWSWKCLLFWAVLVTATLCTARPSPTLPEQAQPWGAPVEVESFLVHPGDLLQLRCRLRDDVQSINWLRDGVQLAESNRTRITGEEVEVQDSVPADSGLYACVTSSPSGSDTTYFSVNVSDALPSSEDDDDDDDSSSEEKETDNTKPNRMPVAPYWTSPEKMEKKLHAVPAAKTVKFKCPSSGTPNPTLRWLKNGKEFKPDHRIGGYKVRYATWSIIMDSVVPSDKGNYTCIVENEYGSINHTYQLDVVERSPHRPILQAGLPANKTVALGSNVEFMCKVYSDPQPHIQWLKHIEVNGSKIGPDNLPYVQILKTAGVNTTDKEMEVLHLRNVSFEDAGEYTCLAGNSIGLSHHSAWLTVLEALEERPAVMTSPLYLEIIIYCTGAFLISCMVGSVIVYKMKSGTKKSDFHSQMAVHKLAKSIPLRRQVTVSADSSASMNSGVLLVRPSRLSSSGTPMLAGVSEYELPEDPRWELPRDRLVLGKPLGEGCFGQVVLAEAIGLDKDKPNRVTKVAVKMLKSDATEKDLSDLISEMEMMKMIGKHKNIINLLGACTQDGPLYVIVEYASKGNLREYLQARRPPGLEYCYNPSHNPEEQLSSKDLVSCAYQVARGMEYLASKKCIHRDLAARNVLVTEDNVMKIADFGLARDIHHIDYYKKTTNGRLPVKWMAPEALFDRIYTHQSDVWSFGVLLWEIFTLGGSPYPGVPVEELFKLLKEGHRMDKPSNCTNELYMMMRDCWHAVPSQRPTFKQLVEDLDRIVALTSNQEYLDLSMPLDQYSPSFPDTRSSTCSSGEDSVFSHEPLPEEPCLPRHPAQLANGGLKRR
Sequence of Hck (P08631 whole entry, looked up): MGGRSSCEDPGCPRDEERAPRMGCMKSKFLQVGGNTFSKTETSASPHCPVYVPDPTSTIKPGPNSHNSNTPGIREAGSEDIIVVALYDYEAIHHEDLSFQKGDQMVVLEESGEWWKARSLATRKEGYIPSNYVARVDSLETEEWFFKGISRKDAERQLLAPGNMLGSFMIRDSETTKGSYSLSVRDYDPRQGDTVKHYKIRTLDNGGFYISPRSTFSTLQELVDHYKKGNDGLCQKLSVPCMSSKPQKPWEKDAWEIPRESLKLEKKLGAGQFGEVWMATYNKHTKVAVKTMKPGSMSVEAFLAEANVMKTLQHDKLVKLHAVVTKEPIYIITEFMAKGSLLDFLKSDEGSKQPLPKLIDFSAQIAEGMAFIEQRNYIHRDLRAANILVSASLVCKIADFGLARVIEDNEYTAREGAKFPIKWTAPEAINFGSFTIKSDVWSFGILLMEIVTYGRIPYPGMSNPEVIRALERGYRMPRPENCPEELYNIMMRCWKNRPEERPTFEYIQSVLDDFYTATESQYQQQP
Sequence of Jak2 (O60674 whole entry, looked up): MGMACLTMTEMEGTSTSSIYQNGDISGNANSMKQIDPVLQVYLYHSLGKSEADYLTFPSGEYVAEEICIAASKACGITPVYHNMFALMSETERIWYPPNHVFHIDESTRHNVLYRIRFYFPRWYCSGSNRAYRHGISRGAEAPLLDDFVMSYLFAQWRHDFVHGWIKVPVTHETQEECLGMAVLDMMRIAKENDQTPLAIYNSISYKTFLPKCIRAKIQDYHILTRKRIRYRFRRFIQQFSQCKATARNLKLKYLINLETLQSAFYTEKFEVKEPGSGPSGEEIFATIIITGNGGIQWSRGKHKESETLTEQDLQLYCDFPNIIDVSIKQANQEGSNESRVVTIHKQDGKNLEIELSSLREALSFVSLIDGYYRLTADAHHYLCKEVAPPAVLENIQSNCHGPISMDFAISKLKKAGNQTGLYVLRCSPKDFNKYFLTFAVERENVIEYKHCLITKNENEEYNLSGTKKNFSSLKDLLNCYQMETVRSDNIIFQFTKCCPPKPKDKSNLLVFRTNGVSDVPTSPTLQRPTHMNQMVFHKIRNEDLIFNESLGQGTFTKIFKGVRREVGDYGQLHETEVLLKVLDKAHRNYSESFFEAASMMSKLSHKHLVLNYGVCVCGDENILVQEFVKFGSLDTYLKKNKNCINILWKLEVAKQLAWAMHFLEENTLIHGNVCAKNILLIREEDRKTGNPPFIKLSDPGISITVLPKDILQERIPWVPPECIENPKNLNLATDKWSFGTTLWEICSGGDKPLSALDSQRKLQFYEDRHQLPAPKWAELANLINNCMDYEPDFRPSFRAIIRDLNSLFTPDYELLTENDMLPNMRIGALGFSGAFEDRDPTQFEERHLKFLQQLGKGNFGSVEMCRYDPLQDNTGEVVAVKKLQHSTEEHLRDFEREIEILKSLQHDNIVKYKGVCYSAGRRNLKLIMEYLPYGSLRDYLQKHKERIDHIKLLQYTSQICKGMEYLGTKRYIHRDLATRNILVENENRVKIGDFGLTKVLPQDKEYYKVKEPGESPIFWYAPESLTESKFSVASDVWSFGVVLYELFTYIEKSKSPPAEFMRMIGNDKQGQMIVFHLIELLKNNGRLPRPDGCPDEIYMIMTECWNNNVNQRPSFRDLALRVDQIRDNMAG

SH2 binding enrichment [1] | SH2 binding enrichment [2] | SH2 binding enrichment [3] | Sequence | phosphorylation enrichment [4] | phosphorylation enrichment [5] | phosphorylation enrichment [6] | phosphorylation enrichment [7] | phosphorylation enrichment [8] | phosphorylation enrichment [9] | phosphorylation enrichment [10] | phosphorylation enrichment [11] | phosphorylation enrichment [12] | phosphorylation enrichment [13] | phosphorylation enrichment [14] | phosphorylation enrichment [15] | phosphorylation enrichment [16]
0.448 | 0.535 | 0.776 | WKKEIYEESST [MOCS2_Y170] | 0.488 | 0.422 | 0.485 | 1.17 | 0.471 | 0.661 | 0.378 | 1.04 | 1.18 | 0.83 | 0.424 | 0.603 | 2.85
0.987 | 1.42 | 1.44 | AIIGIYILRDN [CDH23_Y2949_D2954N] | 1.6 | 0.687 | 1.68 | 1.39 | 0.596 | 0.793 | 0.423 | 1.36 | 1.05 | 0.888 | 0.925 | 0.631 | 0.604
0.628 | 1.3 | 0.857 | AFGTVYKGLWI [EGFR_Y727] | 0.525 | 0.532 | 0.619 | 1.13 | 0.511 | 0.755 | 0.39 | 1.2 | 1.16 | 0.724 | 0.593 | 0.587 | 0.517
0.489 | 0.674 | 0.822 | AESPEHVHMYT [FAM111A_Y511_Y511H] | 0.547 | 0.523 | 0.369 | 0.861 | 0.432 | 0.609 | 0.377 | 0.812 | 0.687 | 0.476 | 0.476 | 0.474 | 0.533
0.476 | 0.747 | 0.818 | GMSQAYSFSQR [DES_Y5_S7F] | 0.379 | 0.317 | 0.495 | 0.755 | 0.338 | 0.481 | 0.721 | 0.761 | 0.551 | 0.454 | 0.389 | 0.453 | 0.392
0.469 | 0.669 | 1.02 | FADIAYNYRQG [PAH_Y166_H170Q] | 0.507 | 0.713 | 0.522 | 0.872 | 0.471 | 0.728 | 0.43 | 0.75 | 0.661 | 0.594 | 0.482 | 0.454 | 0.412
0.642 | 0.64 | 0.735 | EQKKFSNAMKK [SCN5A_Y1495_Y1495S_YF] | 0.364 | 0.229 | 0.401 | 0.473 | 0.331 | 0.693 | 0.326 | 0.474 | 0.315 | 0.375 | 0.293 | 0.345 | 0.378
0.485 | 0.613 | 0.926 | ALDRPYTSKHS [NANS_Y71_E68D] | 0.489 | 0.364 | 0.542 | 0.638 | 0.474 | 0.566 | 0.448 | 0.612 | 0.636 | 0.637 | 0.499 | 0.508 | 0.379
0.526 | 0.629 | 0.935 | DSSIRYLQEIY [FGG_Y135] | 0.948 | 0.587 | 1.14 | 1.02 | 0.549 | 0.655 | 0.438 | 0.893 | 0.733 | 0.567 | 0.776 | 0.585 | 0.59
2.48 | 0.931 | 1.21 | HGEAFYSEVKA [PAK5_Y182_P187A_YF] | 5.57 | 1.26 | 4.05 | 1.01 | 11 | 2.63 | 8.27 | 0.971 | 0.834 | 0.619 | 3.92 | 1.47 | 4.75
0.433 | 0.543 | 0.793 | RSRSPYSSRHS [CDK13_Y415] | 0.548 | 0.422 | 0.446 | 0.634 | 0.439 | 0.489 | 0.625 | 0.596 | 0.472 | 0.637 | 0.557 | 0.614 | 0.701
0.574 | 0.857 | 0.821 | EAVSIYQFYGQ [CBLC_Y402_H405Y] | 7.5 | 10.1 | 7.02 | 1.38 | 9.22 | 1.77 | 9.05 | 2.11 | 1.22 | 4.8 | 9.16 | 11.6 | 1.6
0.743 | 0.766 | 0.59 | NTGVFYDLFGG [PTPN11_Y63_D61V_YF] | 2.84 | 0.609 | 4.82 | 1.12 | 2.86 | 0.638 | 7.01 | 0.99 | 0.958 | 0.797 | 3.21 | 0.986 | 0.455
0.668 | 0.729 | 0.744 | DSGKLYALDVL [INO80_Y1104] | 0.58 | 0.711 | 1.02 | 0.93 | 0.676 | 0.721 | 3.17 | 0.921 | 0.731 | 0.643 | 0.752 | 0.705 | 0.525
0.495 | 0.671 | 0.801 | TFGVVYKARNK [CDK2_Y19_YF] | 0.39 | 0.439 | 0.346 | 0.917 | 0.481 | 0.694 | 0.321 | 0.928 | 0.805 | 0.565 | 0.422 | 0.518 | 0.587
0.577 | 0.8 | 0.653 | GQAPGYSFTAA [CYCS_Y47_YF] | 0.416 | 0.354 | 0.503 | 0.509 | 0.364 | 0.428 | 0.389 | 0.502 | 0.471 | 0.504 | 0.393 | 0.427 | 0.422
